In patent publication US20100068145A1:

Target: Collagen I
Test: cell-based or functional assay

B1: GPVI-CD133 construct (bispecific fusion protein: soluble GPVI-Fc chemically conjugated via SPDP to the CD133-reactive monoclonal antibody W6B3C1) (protein, part only; not given: Fc and anti-CD133 antibody chains, human, not shown: a dimerising Fc or GST)
chain, part: QSGPLPKPSLQALPSSLVPLEKPVTLRCQGPPGVDLYRLEKLSSSRYQDQAVLFIPAMKRSLAGRYRCSYQNGSLWSLPSDQLELVATGVFAKPSLSAQPGPAVSSGGDVTLQCQTRYGFDQFALYKEGDPAPYKNPERWYRASFPIITVTAAHSGTYRCYSFSSRDPYLWSAPSDPLELVVTGTSVTPSRLPTEPPSSVAEFSEATAELTVSFTNKVFTTETSRSITTSPKESDSPAGPARQYYTK
modifications: amino groups modified with SPDP (N-succinimidyl 3-(2-pyridyldithio)-propionate), reduced with DTT and conjugated to the SPDP-modified CD133 antibody
  adhesion of EPCs (CD34+ cells) to immobilized collagen I, flow chamber model (2,000 sec^-1), fold against collagen alone: 10 fold
  adhesion of EPCs (CD34+ cells) to immobilized collagen I, static adhesion assay, fold against collagen alone: 5 fold
